Measurements taken from patent publication US20200362049A1 (BLACK BELT THERAPEUTICS, published 2020).

Experiments:
Human CD38 on cells [1] = target: T1, Human CD38 on cells (human, UniProt P28907 1-300); assay: cell-based or functional assay
Human CD38 on cells [2] = target: T1, Human CD38 on cells; assay: cell-based or functional assay; remark: listed apart in the source

B1: Daratumumab (antibody, human IgG1, kappa, V domains shown)
VH: EVQLLESGGGLVQPGGSLRLSCAVSGFTFNSFAMSWVRQAPGKGLEWVSAISGSGGGTYYADSVKGRFTISRDNSKNTLYLQMNSLRAEDTAVYFCAKDKILWFGEPVFDYWGQGTLVTVSS
VL: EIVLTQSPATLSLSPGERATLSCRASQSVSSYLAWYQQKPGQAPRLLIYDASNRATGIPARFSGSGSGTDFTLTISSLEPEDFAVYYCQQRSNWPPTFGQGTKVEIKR
ADCC, target Daudi cells: EC50 ug/ml DARA (Human CD38 on cells [1]): 0.0139 µg/mL | CDC, 10% complement, target Daudi cells: EC50 ug/ml DARA (experiment 10) (Human CD38 on cells [2]): 0.11 µg/mL | CDC, 10% complement, target Daudi cells: EC50 ug/ml DARA (experiment 11) (Human CD38 on cells [2]): 0.07 µg/mL
